# According to publication PMC7641127 (2020):
# No end group written: not given here.
# T1: recombinant MCL1 (human, UniProt Q07820 1-350)
# T1 chain: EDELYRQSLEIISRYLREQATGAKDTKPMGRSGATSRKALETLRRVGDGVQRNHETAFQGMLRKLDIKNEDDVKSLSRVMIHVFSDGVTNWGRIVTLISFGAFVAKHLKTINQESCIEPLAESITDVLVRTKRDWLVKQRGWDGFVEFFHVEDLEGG
# Molecular target: T1, recombinant MCL1
# Assay: FP
row,IC50 [nM],Binder
1,2630,RENFEILMKLKESLELMELV [p73TD-derived peptide α1]
2,882,RENFEILMKLKESLELMELVPQPLVDSYRQQQQLLQR [p73TD-derived peptide α1α2]
3,1090,DEDTYYLQVRGRENFEILMKLKESLELMELV-NH2 [p73TD-derived peptide β1α1]
